# Assay results from the DeepSol protein solubility set.
# Assay: soluble on expression in E. coli; label from the status in PepcDB or PDB records
row,Sequence,soluble on expression in E. coli
1,MTTEKEMKQIQNEFKERMDEGELLNCMRCGFCLPSCPTYIESGFQETHSPRGRIALMKAVADGMIEPDEDVERSLSLCLGCRACEPVCPSGVKYGQLLEEARDIIHQNKKHSLGERVMRKTAFHELFPHQNRMRSAVSLIGLYQRSGLQTAVRKSGMLRVLPEHLRTMEAVLPDVPKSKDMKHRPRFLPSIGPMKKRVAFFSGCLMDTMFLPTNNATLKLLQLAGCDIVIPPEQACCGALHGHSGEKNTGKELAKQNIAAFEALDVDAVITNAGGCGAFLTEYDHLLKDDPEWSERAAAFVQKLKDFSSVLVELDFHQMDLALETPQVVTYQDSCHLRNVMHTSLEPRQLLKSIKGAEFKEMEKADSCCGSAGIYNIVEVEMSMKILDSKMAAVKATEAILIVTANPGCLLQMKLGIEREGLSGKVRAVHLADLLLEAAGHKTS,not soluble
2,MSTINYDLSRIKALAFDVDGVLSSTTVPLHPSGEPMRTVNIKDGYAIQLAVKKGLHIAIITGGRTEAVRIRFAALGVKDLYMGSAVKIHDYRNFRDKYGLSDDEILYMGDDVPDIEVMRECGLPCCPKDAVPEVKSVAKYISYADGGRGCGRDVVEQVLKAHGKWMAEDAFGW,not soluble
3,MINKTQARRHKRKYKYRSKGNHSRSLLGMHTSPANSSMSQAIYSNDSLTTTDGVLGDESLSSETSIVSFTGENANKQKRQRLSESTENSIPEPAFLRSNVTSLTTSESDDIQQFFLENESLFQIEYKIDYKNYRDYTIVPSFGTVIPKSKCEIALICRPTGKSESDQMTISYKTVDSDNDLANGCFSEMEKIVIDIKGRSQESPIHSIPSSSGSSSTSSPSAKRRNIVDSDSD,not soluble
4,PVNQKSKRSELSQRRIRRPFSVAEVEALVEAVEHLGTGRWRDVKMRAFDNADHRTYVDLKDKWKTLVHTASIAPQQRRGEPVPQDLLDRVLAAHAYWSQQQGKQHVEPLKILDAKAQKVGA,soluble
5,MGSDKIHHHHHHMNNEFYNQGLEKAKQRDYAGAIEEFSRALKLTPYFAEAYLQRGLAYYDSGAILLAVSDYTEVIRINPESVEAYYCRSLARLALKNLPGALEDVEQAIRLNINYAAAHHLRGTVRRKQGYIQDAIASFKQAAELYLQQKDQENCRLCLEKIKQLQPPKQSTIQPTKSPIAPITSVNEYFTQLLDKAEQGDTREAIADLNWILQADPQDAQAYCCRGVVRCKMGNYREAIADFNQALQLNFQDAVVYRNRGKARSLLGDHRGAIADFNQAIQIQPEDTLGYVARGNTYRAMGNYLGAIQDYGKALQINPHDAQAYYNRGIAYTFLEEMQNAVEDYQRAASIFCEQQDWENYQLTQDSLKQIQTSIPEYKQQKSNVLRQKLLRLVGGYWEIAQRLIQQQKDYQPGMSEEWYMQKVIDDLERDRGR,not soluble
6,MGSDKIHHHHHHMKRCPNCGCRGQAAFPEHVPGQVQYGPRLHAFTTLLNVGHFIPLERVTQLTDALFGASISDGTVALNINLASERLEPFEDDLKTGLRQQAVLHADETGAKVNGKLNWFHVACFARGTLYTLHEKRGYAALEAAGVLTDFTGVVVHDAWSTYFRLPGEHALCNAHLLRELRKLDEHDRQPWAGELRRALQQVYHAQKTGTLTDEQRAVFYTRFDELVLAGLEANPVQEPVPKRRGKPKQLPGRNLALRCQQHRAAMLLFLERADVPFDNNQAERDIRMACVKRKVSGGFRSEVGGQAFCRVRSFISTLQKQGLSVWTGLVDVFRGVLPKLDFSC,not soluble
7,MADRPQLSIIIPVFNEAKILQKSPTENTRQYLGQFTEDQRIEILIIDGGSQDSTVELCQTYADSLPLHVFISPQTGRANQMNYGASLSRSEWLLFLHLDSILPHDFFTQIAEILTNSSYIAGAFGLTIDLPGRPYRWLEKLILWRSIYAQKPYGDQGLFIQRQDFQQLGGFADLPIMEDYQFMQKLGKQRGKVAIAGGKVITSGRRWQKLGLLRTTAINQLVVAGYHLGVSPQTLVHWYRGAKPNRGNRPNSDGTSCLEHHHHHH,soluble
8,MSLENLQTNFSLVQGSTKKLNGMGDDGSPPAKKMITDIHVNGKTINKVPTVKKEHLDDYGEAPVETDGEHVKRTCTSVPETLHLNPSLKHTLAQFHLSSQSSLGGPAAFSARHSQESMSPTVFLPLPSPQVLPGPLLIPSDSSTELTQTVLEGESISCFQVGGEKRLCLPQVLNSVLREFTLQQINTVCDELYIYCSRCTSDQLHILKVLGILPFNAPSCGLITLTDAQRLCNALLRPRTFPQNGSVLPAKSSLAQLKETGSAFEVEHECLGKCQGLFAPQFYVQPDAPCIQCLECCGMFAPQTFVMHSHRSPDKRTCHWGFESAKWHCYLHVNQKYLGTPEEKKLKIILEEMKEKFSMREGHHHHHH,not soluble
